Patent US20220001039A1, “COMPOSITIONS AND METHODS FOR DETECTING ACE2 EXPRESSION PROFILES” (Washington University, priority 2020, published 2022)
Where two headings read alike, the source gives them in different places.

How the values were obtained:
HEK293-hACE2 xenografts = system: HEK293-hACE2 xenografts; design: species or system mice; conditions: mouse, in vivo
Procedure: Tumors were monitored and imaging commenced after reaching >200 mm3. […] PET images were reconstructed by an iterative three-dimensional maximum a priori algorithm. […] At 1, 4, and 20 h post-injection, the animals were sacrificed for tissue dissection. The organs of interest were collected, rinsed, blotted, weighed, and counted with a γ-counter (Perkin Elmer Wizard2). The total injected radioactivity per animal was determined from the measured radioactivity in an aliquot of the injectate. Data were expressed as a percent of injected activity per gram of tissue (% IA/g).

ACE2 [1] = biological target: T1, ACE2 (Homo sapiens, UniProt Q9BYF1); conditions: in vivo
T1 sequence (Q9BYF1 18-805): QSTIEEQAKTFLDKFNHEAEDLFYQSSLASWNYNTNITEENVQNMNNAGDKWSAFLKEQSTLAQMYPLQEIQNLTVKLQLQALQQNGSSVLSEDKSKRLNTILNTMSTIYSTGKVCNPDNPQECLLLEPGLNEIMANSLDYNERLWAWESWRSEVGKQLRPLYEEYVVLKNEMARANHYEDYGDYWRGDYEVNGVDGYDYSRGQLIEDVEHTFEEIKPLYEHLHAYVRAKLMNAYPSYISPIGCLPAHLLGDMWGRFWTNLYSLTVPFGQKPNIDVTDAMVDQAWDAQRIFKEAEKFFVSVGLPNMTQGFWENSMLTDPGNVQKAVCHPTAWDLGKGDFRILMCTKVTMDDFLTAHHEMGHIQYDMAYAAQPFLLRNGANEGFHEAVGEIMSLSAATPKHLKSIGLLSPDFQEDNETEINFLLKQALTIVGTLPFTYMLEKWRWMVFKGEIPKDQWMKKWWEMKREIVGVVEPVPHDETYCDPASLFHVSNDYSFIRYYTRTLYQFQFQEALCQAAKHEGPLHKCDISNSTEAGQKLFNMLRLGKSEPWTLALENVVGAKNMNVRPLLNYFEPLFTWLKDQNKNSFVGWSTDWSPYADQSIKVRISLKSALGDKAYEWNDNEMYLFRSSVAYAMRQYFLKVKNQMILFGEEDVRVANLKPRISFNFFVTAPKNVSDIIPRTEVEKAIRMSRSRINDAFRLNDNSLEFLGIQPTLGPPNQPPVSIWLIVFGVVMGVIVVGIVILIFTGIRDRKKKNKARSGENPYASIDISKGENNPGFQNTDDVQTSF

ACE2 [2] = biological target: T1, ACE2; conditions: in vivo; remark: listed apart in the source
[3] = Acute toxicity test / body weight monitoring in mice; format: in vivo
Procedure: The experiment was carried out in 10 mice at 4-weeks of age. […] The injection was repeated on day 0, day 4, day 11, day 18 and day 25, and the weight of the mice was recorded.

clinical = conditions: human, in vivo, iv, total radioactivity, SUVmax
ACE2 [4] = biological target: T1, ACE2; assay: 68Ga-HZ20 PET/CT in healthy volunteers (SUVmax)
[5] = format: physicochemical
Procedure: The solution was analyzed by radio-HPLC to assess the radiochemical purity. The HPLC was eluted with water-CH3CN system (Phase A: 0.1% TFA H2O; Phase B: 0.1% TFA CH3CN) using gradient elution (0-5 min 20% B; 5-10 min 20%-80% B; 10-12 min 80% B; 12-15 min 80%-20% B) at a flow rate of 1.0 mL/min. The radiolabeling yield was 59.9±3.9% (non-decay corrected, n=10) and the radiochemical purity was over 95%. […] At 1 h, 2 h, and 4 h time points, 10 μL aliquot was analyzed by radio-HPLC to assess the radiochemical purity.

[6] = in vivo
Description: Ex vivo biodistribution analysis of the tracer in these hACE2 expressing (and vehicle control) tumors recapitulated these imaging findings (FIG. 5A).

ACE2 [7] = biological target: T1, ACE2; design: from tissue; host or cells: organs of hACE2 transgenic mice, imaged in vivo by PET; species or system mice; conditions: mouse, in vivo
Description: PET images were reconstructed by an iterative three-dimensional maximum a priori algorithm.

[8] = healthy volunteers average, 90 min

## CC(C)C[C@H](NC(=O)[C@@H]1CCCN1C(=O)[C@H](CO)NC(=O)[C@H](CS)NC(=O)[C@H](Cc1c[nH]cn1)NC(=O)[C@H](CO)NC(=O)[C@H](Cc1ccc(O)cc1)NC(=O)[C@H](CC(=O)O)NC(=O)CNC(=O)CCC(C(=O)O)N1CCN(CC(=O)O)CCN(CC(=O)O)CC1)C(=O)N[C@@H](CCCNC(=N)N)C(=O)N[C@@H](Cc1ccc(O)cc1)C(=O)N[C@@H](Cc1ccc(O)cc1)C(=O)N1CCC[C@H]1C(=O)N[C@@H](Cc1c[nH]c2ccccc12)C(=O)N[C@@H](Cc1c[nH]c2ccccc12)C(=O)N[C@@H](CCCCN)C(=O)N[C@@H](CS)C(=O)N[C@H](C(=O)N[C@@H](Cc1ccc(O)cc1)C(=O)N1CCC[C@H]1C(=O)N[C@@H](CC(=O)O)C(=O)N1CCC[C@H]1C(=O)N[C@@H](CCC(=O)O)C(=O)NCC(=O)NCC(=O)NCC(N)=O)[C@@H](C)O (stereo partly shown) [64Cu-HZ-19, metal not drawn]
HEK293-hACE2 xenografts
  clearance from the blood pool: rapid
  liver retention: increased liver retention

## CC(C)C[C@@H]1NC(=O)[C@@H]2CCCN2C(=O)[C@H](CO)NC(=O)[C@@H](NC(=O)[C@H](Cc2c[nH]cn2)NC(=O)[C@H](CO)NC(=O)[C@H](Cc2ccc(O)cc2)NC(=O)[C@H](CC(=O)O)NC(=O)CNC(=O)CN2CCN(CC(=O)O)CCN(CC(=O)O)CCN(CC(=O)O)CC2)CSSC[C@@H](C(=O)N[C@H](C(=O)N[C@@H](Cc2ccc(O)cc2)C(=O)N2CCC[C@H]2C(=O)N[C@@H](CC(=O)O)C(=O)N2CCC[C@H]2C(=O)N[C@@H](CCC(=O)O)C(=O)NCC(=O)NCC(=O)NCC(N)=O)[C@@H](C)O)NC(=O)[C@H](CCCCN)NC(=O)[C@H](Cc2c[nH]c3ccccc23)NC(=O)[C@H](Cc2c[nH]c3ccccc23)NC(=O)[C@@H]2CCCN2C(=O)[C@H](Cc2ccc(O)cc2)NC(=O)[C@H](Cc2ccc(O)cc2)NC(=O)[C@H](CCCNC(=N)N)NC1=O [68Ga-HZ20, metal not drawn]
ACE2 [1]
  SUVmax, gallbladder: 4.32
  SUVmax, left testis: 8.65
  SUVmax, renal cortex: 18.40
  SUVmax, renal cortex, left kidney: 11.59
  SUVmax, renal cortex, right kidney: 18.40
  SUVmax, right testis: 8.79
ACE2 [2]
  SUVmax difference right minus left, confidence interval, eyes: −0.09 to 0.10
  SUVmax difference right minus left, confidence interval, lungs: −0.02 to 0.10
  SUVmax difference right minus left, confidence interval, renal cortex: 3.77 to 10.90
  SUVmax difference right minus left, confidence interval, testis: −0.38 to 0.25
  SUVmax, breast: 2.72
  SUVmax, lung: only low SUVmax
  SUVmax, small intestine: 0.48
  SUVmax, testis: 5.57
  blood-brain barrier penetration: poor blood-brain barrier penetration
[3]; mouse, in vivo
  acute toxicity test: well tolerated
clinical; both, gallbladder
  SUV at 1.5 h: 2.14 ± 0.16 SUV
clinical; both, other organs (relatively low uptake)
  SUV: < 1.5 SUV
clinical; both, renal cortex, corpus luteum, and testis (high uptake)
  SUV: > 2.5 SUV
clinical; female, breast, gallbladder, ovary, nasal mucosa, and esophagus (median uptake)
  SUV: 1.5 SUV
clinical; male, conjunctiva
  SUV: 1.5 SUV
ACE2 [4]; female volunteers <50 years, 90 min
  SUVmax, breast, young group: 2.21±0.25
ACE2 [4]; female volunteers ≥50 years, 90 min
  SUVmax, breast, old group: 1.35±0.22
ACE2 [4]; healthy females, 90 min
  SUVmax, ovary: 2.12±1.42
  SUVmax, uterus: 2.41±0.34
ACE2 [4]; healthy males, 90 min
  SUVmax, testis: 4.46±0.30
ACE2 [4]; healthy volunteers
  SUVmax, left testis: 4.58±0.40
  SUVmax, renal cortex, left kidney: 22.18±1.78
  SUVmax, renal cortex, right kidney: 25.67±1.39
  SUVmax, right testis: 4.51±0.54
ACE2 [4]; [8]
  SUVmax, conjunctiva: 1.71±0.08
  SUVmax, esophagus: 1.63±0.11
  SUVmax, liver: 1.59±0.14
  SUVmax, pancreas: 1.63±0.24
  SUVmax, rectum: 1.46±0.13
  SUVmax, renal cortex: 25.67±1.39
  SUVmax, renal medulla: 18.34±1.42
[5]
  stability: stable within 2 h

## CC(C)C[C@@H]1NC(=O)[C@@H]2CCCN2C(=O)[C@H](CO)NC(=O)[C@@H](NC(=O)[C@H](Cc2c[nH]cn2)NC(=O)[C@H](CO)NC(=O)[C@H](Cc2ccc(O)cc2)NC(=O)[C@H](CC(=O)O)NC(=O)CNC(=O)CCC(C(=O)O)N2CCN(CC(=O)O)CCN(CC(=O)O)CC2)CSSC[C@@H](C(=O)N[C@H](C(=O)N[C@@H](Cc2ccc(O)cc2)C(=O)N2CCC[C@H]2C(=O)N[C@@H](CC(=O)O)C(=O)N2CCC[C@H]2C(=O)N[C@@H](CCC(=O)O)C(=O)NCC(=O)NCC(=O)NCC(N)=O)[C@@H](C)O)NC(=O)[C@H](CCCCN)NC(=O)[C@H](Cc2c[nH]c3ccccc23)NC(=O)[C@H](Cc2c[nH]c3ccccc23)NC(=O)[C@@H]2CCCN2C(=O)[C@H](Cc2ccc(O)cc2)NC(=O)[C@H](Cc2ccc(O)cc2)NC(=O)[C@H](CCCNC(=N)N)NC1=O (stereo partly shown) [64Cu-HZ20, metal not drawn]
[6]
  tissue retention by imaging or organ counting: limited or very low tissue retention
ACE2 [7]
  accumulation in hACE2 transgenic mice compared to wild-type strain: significantly higher accumulation in the heart, lung, liver, and intestine
HEK293-hACE2 xenografts
  clearance from the blood pool: rapid
  hACE2 tumor binding: Greater hACE2 tumor binding
  kidney clearance: greater kidney clearance
  signal distribution by PET: highest signal in the kidneys, high intensity in HEK293-hACE2 xenografts, and moderate in liver

## CC(=O)NCC(=O)N[C@@H](CC(=O)O)C(=O)N[C@@H](Cc1ccc(O)cc1)C(=O)N[C@@H](CO)C(=O)N[C@@H](Cc1cnc[nH]1)C(=O)N[C@H]1CSSC[C@@H](C(=O)N[C@H](C(=O)N[C@@H](Cc2ccc(O)cc2)C(=O)N2CCC[C@H]2C(=O)N[C@@H](CC(=O)O)C(=O)N2CCC[C@H]2C(=O)N[C@@H](CCC(=O)O)C(=O)NCC(=O)NCC(=O)NCC(N)=O)[C@@H](C)O)NC(=O)[C@H](CCCCN)NC(=O)[C@H](Cc2c[nH]c3ccccc23)NC(=O)[C@H](Cc2c[nH]c3ccccc23)NC(=O)[C@@H]2CCCN2C(=O)[C@H](Cc2ccc(O)cc2)NC(=O)[C@H](Cc2ccc(O)cc2)NC(=O)[C@H](CCCNC(=N)N)NC(=O)[C@H](CC(C)C)NC(=O)[C@@H]2CCCN2C(=O)[C@H](CO)NC1=O [DX600]
[3]; 200 μg/200 μL on day 0, 4, 11, 18 and 25
  body weight, experimental group versus control group: no significant difference
[3]; experimental group n=5
  body weight, start of monitoring: 26.5 ± 5.2 g
[3]; experimental group n=5, 25 days
  body weight, end of monitoring: 41.2 ± 3.1 g
